By EC50 is commonly meant the concentration giving half of the maximal effect. A low value points to higher potency in that assay.

For test [1], the target named is SARS-CoV-2 wild-type receptor-binding domain (WT-RBD) (SARS-CoV-2, UniProt P0DTC2 319-541). As to the kind of experiment: ELISA.
The target of test [2] is SARS-CoV-2 wild-type spike S1 subunit (WT-S1) (SARS-CoV-2). Nature of the test: ELISA. In general terms: ELISA stands for enzyme-linked immunosorbent assay.

B1: D2, recombinant human immunoglobulin G1 (IgG1) (antibody, V domains shown)
VH: EVQLVESGGGLVQPGRSLTLSCGASGFTFEDYAMHWVRQAPGKGLEWVSGIDWNSGVIGYADSVKGRFIISRDNAKNSLYLHMRSLTAEDTALYYCAKDVYSESGSGSYYDYWGQGTLVTVSS
VL: QSVLTQPPSVSAAPGQKVAISCSGSTSNIGDNFVSWYQQFPGTAPKLLLYDDARRPSGIPDRFSGSKSGTSATLGITGLQTGDEAVYFCSTWDNSLNVVLFGGGTKLTVL
As for B1, the figures for the EC50 in test [1] and in test [2] were 4.41 ng/mL and 3.53 ng/mL, respectively.

B2: F61, recombinant human immunoglobulin G1 (IgG1) (antibody, V domains shown)
VH: EVQLVESGGGLVQPGGSLRLSCEASEIIVNRNYMNWVRQAPGKGLEWVSIIYPGGSTFYADSVKGRFTISRDNSKNTMYLQMNSLRAEDTAVYYCARSYGDFYVDFWGQGTLVTVSS
VL: QSVLTQPPSVSAAPGQKVTISCSGSSSNIGNNYVSWYQQLPGTAPKLLIYDNNKRPSGIPDRFSGSKSGTSATLGITGLQTGDEADYYCGTWDSSLSAWVFGGGTKLTVL
For B2, the EC50 in test [1] was 3.01 ng/mL; in test [2] it was 3.12 ng/mL.

These data come from paper PMC9453709 (2022).
